Measurements as given in patent US20110305732A1.

Target: human Robo-1 (human) (UniProt Q9Y6N7)
Assay: cell-based or functional assay

UniProt Q9Y6N7, sequence (Q9Y6N7 26-1651): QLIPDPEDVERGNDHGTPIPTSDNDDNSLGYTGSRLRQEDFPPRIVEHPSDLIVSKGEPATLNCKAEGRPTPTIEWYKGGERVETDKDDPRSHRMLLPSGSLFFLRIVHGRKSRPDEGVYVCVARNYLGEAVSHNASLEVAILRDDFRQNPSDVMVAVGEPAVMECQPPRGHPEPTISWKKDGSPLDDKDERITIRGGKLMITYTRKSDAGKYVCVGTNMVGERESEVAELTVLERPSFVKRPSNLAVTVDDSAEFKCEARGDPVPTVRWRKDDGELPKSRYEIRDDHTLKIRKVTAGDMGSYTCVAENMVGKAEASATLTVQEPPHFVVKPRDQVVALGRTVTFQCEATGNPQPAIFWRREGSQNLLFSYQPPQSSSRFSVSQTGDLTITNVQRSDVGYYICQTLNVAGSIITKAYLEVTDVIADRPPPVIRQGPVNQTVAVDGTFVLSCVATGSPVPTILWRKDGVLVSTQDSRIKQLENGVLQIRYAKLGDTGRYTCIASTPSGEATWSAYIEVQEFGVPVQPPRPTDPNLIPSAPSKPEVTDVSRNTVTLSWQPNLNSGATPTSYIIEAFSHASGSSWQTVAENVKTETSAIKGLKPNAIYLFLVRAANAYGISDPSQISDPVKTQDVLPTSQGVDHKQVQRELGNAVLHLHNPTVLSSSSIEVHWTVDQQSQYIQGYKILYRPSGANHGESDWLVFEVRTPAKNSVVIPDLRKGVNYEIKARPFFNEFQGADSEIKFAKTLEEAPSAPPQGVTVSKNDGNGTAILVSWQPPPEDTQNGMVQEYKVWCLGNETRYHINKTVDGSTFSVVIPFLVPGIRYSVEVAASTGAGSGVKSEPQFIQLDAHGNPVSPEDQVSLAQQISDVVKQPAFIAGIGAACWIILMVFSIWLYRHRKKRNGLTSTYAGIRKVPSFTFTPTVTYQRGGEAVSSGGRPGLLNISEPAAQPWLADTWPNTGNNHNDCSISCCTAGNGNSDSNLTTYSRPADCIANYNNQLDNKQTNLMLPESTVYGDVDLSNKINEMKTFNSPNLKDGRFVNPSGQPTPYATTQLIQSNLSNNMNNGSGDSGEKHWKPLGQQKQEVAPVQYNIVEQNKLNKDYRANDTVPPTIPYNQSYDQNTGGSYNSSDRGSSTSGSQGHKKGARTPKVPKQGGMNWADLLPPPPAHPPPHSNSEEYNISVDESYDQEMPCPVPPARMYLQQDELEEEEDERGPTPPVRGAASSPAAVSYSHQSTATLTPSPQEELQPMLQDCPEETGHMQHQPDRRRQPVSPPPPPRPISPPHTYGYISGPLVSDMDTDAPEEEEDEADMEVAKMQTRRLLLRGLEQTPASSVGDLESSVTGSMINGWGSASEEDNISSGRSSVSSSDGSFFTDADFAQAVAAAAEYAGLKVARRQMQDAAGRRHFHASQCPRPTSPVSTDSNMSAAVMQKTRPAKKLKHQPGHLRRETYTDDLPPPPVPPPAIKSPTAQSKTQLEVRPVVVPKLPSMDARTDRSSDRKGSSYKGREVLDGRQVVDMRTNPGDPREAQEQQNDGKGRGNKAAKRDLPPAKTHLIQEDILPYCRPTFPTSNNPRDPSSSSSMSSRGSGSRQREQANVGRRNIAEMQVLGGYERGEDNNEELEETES

average platelet surface area coverage on collagen at shear flow rate 1900 sec^-1: 3.1%
average surface area covered by platelets on collagen at shear flow rate 1000 sec^-1: 1.3%
mean platelet surface area on fibrinogen after 30 min (platelet spreading): 20.9 µm^2
mean surface area of platelets on collagen after 30 min (platelet spreading): 13.5 µm^2
mean surface area of platelets on fibronectin after 30 min (platelet spreading): 19.3 µm^2
percentage of platelets expressing cell-surface CD62P after ADP stimulation: 13.2%
phosphorylation of Akt during platelet spreading on fibrinogen (fold over basal 1.0) (fold over basal): 2.8
B1: full length human Slit2 (ligand, UniProt O94813-3 31-1521, looked up)
chain: QCSCSGSTVDCHGLALRSVPRNIPRNTERLDLNGNNITRITKTDFAGLRHLRVLQLMENKISTIERGAFQDLKELERLRLNRNHLQLFPELLFLGTAKLYRLDLSENQIQAIPRKAFRGAVDIKNLQLDYNQISCIEDGAFRALRDLEVLTLNNNNITRLSVASFNHMPKLRTFRLHSNNLYCDCHLAWLSDWLRQRPRVGLYTQCMGPSHLRGHNVAEVQKREFVCSGHQSFMAPSCSVLHCPAACTCSNNIVDCRGKGLTEIPTNLPETITEIRLEQNTIKVIPPGAFSPYKKLRRIDLSNNQISELAPDAFQGLRSLNSLVLYGNKITELPKSLFEGLFSLQLLLLNANKINCLRVDAFQDLHNLNLLSLYDNKLQTIAKGTFSPLRAIQTMHLAQNPFICDCHLKWLADYLHTNPIETSGARCTSPRRLANKRIGQIKSKKFRCSGTEDYRSKLSGDCFADLACPEKCRCEGTTVDCSNQKLNKIPEHIPQYTAELRLNNNEFTVLEATGIFKKLPQLRKINFSNNKITDIEEGAFEGASGVNEILLTSNRLENVQHKMFKGLESLKTLMLRSNRITCVGNDSFIGLSSVRLLSLYDNQITTVAPGAFDTLHSLSTLNLLANPFNCNCYLAWLGEWLRKKRIVTGNPRCQKPYFLKEIPIQDVAIQDFTCDDGNDDNSCSPLSRCPTECTCLDTVVRCSNKGLKVLPKGIPRDVTELYLDGNQFTLVPKELSNYKHLTLIDLSNNRISTLSNQSFSNMTQLLTLILSYNRLRCIPPRTFDGLKSLRLLSLHGNDISVVPEGAFNDLSALSHLAIGANPLYCDCNMQWLSDWVKSEYKEPGIARCAGPGEMADKLLLTTPSKKFTCQGPVDVNILAKCNPCLSNPCKNDGTCNSDPVDFYRCTCPYGFKGQDCDVPIHACISNPCKHGGTCHLKEGEEDGFWCICADGFEGENCEVNVDDCEDNDCENNSTCVDGINNYTCLCPPEYTGELCEEKLDFCAQDLNPCQHDSKCILTPKGFKCDCTPGYVGEHCDIDFDDCQDNKCKNGAHCTDAVNGYTCICPEGYSGLFCEFSPPMVLPRTSPCDNFDCQNGAQCIVRINEPICQCLPGYQGEKCEKLVSVNFINKESYLQIPSAKVRPQTNITLQIATDEDSGILLYKGDKDHIAVELYRGRVRASYDTGSHPASAIYSVETINDGNFHIVELLALDQSLSLSVDGGNPKIITNLSKQSTLNFDSPLYVGGMPGKSNVASLRQAPGQNGTSFHGCIRNLYINSELQDFQKVPMQTGILPGCEPCHKKVCAHGTCQPSSQAGFTCECQEGWMGPLCDQRTNDPCLGNKCVHGTCLPINAFSYSCKCLEGHGGVLCDEEEDLFNPCQAIKCKHGKCRLSGLGQPYCECSSGYTGDSCDREISCRGERIRDYYQKQQGYAACQTTKKVSRLECRGGCAGGQCCGPLRSKRRKYSFECTDGSSFVDEVEKVVKCGCTRCVS
